The supplement of paper PMC12455559
± gives the standard deviation of the averaged measurements.

Key:
[1] = melting temperature (DSF); higher = more thermostable
Outline: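 Candidate enzymes were expressed in E. coli C41(DE3), purified on nickel beads and released by SUMO protease cleavage. For differential scanning fluorimetry, 45 μL enzyme (0 to 0.3 mg/mL) was mixed with 5 μL 5X Sypro Orange in sealed PCR plates on a Bio-Rad CFX96 instrument. Fluorescence was read from 25 °C in steps of 0.3 °C per cycle (ramp 0.3 °C/s) for 250 cycles. The read-out is melting temperature.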

[2] = purified protein yield per well (BCA); higher = higher soluble expression
Outline: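 Candidate enzymes were expressed in E. coli C41(DE3) in 2 mL autoinduction cultures with 100 µg/mL kanamycin, at 37 °C for 2 h and then 18 °C for 40 h. Cells were lysed, and protein was bound to Ni-charged magnetic beads and released by SUMO protease cleavage on an OT-2 robot. The read-out is purified protein yield per well, measured with the Pierce Rapid Gold BCA kit. Values below 25 ug (0.1 mg/mL) are below the detection threshold.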

[3] = PET hydrolysis, aromatic products released after 48 h (umol product/mg enzyme); higher = more PET depolymerization activity
Outline: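 The measure of PET hydrolysis activity is aromatic product released into the supernatant, given per mg enzyme. Nickel-purified, SUMO-cleaved enzyme without tag was added at 5 μg (50 μL) to 3.5 mg amorphous PET film or crystalline PET powder in 450 μL of citrate, phosphate or glycine buffer spanning pH 4.5 to 8.5. After 48 h at 40 or 60 °C in sealed plates without shaking, absorbance at 260 and 280 nm was taken against buffer blanks.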

[4] = substrate: aFilm, 40 °C, pH 4.5
[5] = substrate: aFilm, 40 °C, pH 5.5
[6] = substrate: aFilm, 40 °C, pH 6.5
[7] = substrate: aFilm, 40 °C, pH 7.5
[8] = substrate: aFilm, 60 °C, pH 4.5
[9] = substrate: aFilm, 60 °C, pH 5.5
[10] = substrate: aFilm, 60 °C, pH 6.5
[11] = substrate: aFilm, 60 °C, pH 7.5
[12] = substrate: cryPow, 40 °C, pH 4.5
[13] = substrate: cryPow, 40 °C, pH 5.5
[14] = substrate: cryPow, 40 °C, pH 6.5
[15] = substrate: cryPow, 40 °C, pH 7.5
[16] = substrate: cryPow, 60 °C, pH 4.5
[17] = substrate: cryPow, 60 °C, pH 5.5
[18] = substrate: cryPow, 60 °C, pH 6.5
[19] = substrate: cryPow, 60 °C, pH 7.5

Row | Sequence | melting temperature [1] [C] | purified protein yield per well [2] [µg] | PET hydrolysis [3, 4] | PET hydrolysis [3, 5] | PET hydrolysis [3, 6] | PET hydrolysis [3, 7] | PET hydrolysis [3, 8] | PET hydrolysis [3, 9] | PET hydrolysis [3, 10] | PET hydrolysis [3, 11] | PET hydrolysis [3, 12] | PET hydrolysis [3, 13] | PET hydrolysis [3, 14] | PET hydrolysis [3, 15] | PET hydrolysis [3, 16] | PET hydrolysis [3, 17] | PET hydrolysis [3, 18] | PET hydrolysis [3, 19] | PET hydrolysis ([3]; substrate: cryPow, 40 °C, pH 8.5) | PET hydrolysis ([3]; substrate: cryPow, 60 °C, pH 8.5)
1 | LTPSPTPPPTGGTGGCPADAICRGETPGSYSANGPYGSRSYTLSRIQTPGGATVYYPANAEPPFSGLVFTPPYTGSQFMYRAWGPFFASHGIVMVTMDTRTTLDSVDQRAAQQKQVLDALKAENTRSASPLRGKLDTSRLGAVGWSMGGGATWINSAEYSGLKTAMSLAGHNLSALDINARGSNTRVPTLIMNGALDATYLGGLGQSLGVYNNIPRGIPKVIYEVSSAGHFSWGSPTSAGRSVAQIALAFQKTFLDGDTRWATYIRRPSSGVATWRTANLP [ESM175] | 46 | 285 | < 3 | < 3 | < 3 | < 3 | < 3 | < 3 | < 3 | < 3 | < 3 | < 3 | < 3 | < 3 | < 3 | < 3 | < 3 | < 3 |  | 
2 | MAAANPYQRGPDPTLASVAATNGPFATAQMTVPPGNGFNGGYIYYPTDTSLGTWGAVAIVPGYTALFKNEEAWMGPRLASFGFVVIGIETNSRTDFDTARGTQLLAALDYLTQKSAVRNRVDPGRLGVIGHSMGGGGALVAATQRPSLKAAVGLAPFKPSGNLANDRVPTMFIAGNRDTVVTPSYLDGLYGSLPAATKKAYVQINGADHLFATKPNTVEMRTLIPWLKIFLDNDTRYSQFLCPTLLDKTGVSMYRGTCPLI [TEP109] | 61.6 | 285 | 7 ± 1.4 | 12.5 ± 2.1 | 10.5 ± 2.1 | < 3 | < 3 | 2 ± 2.8 | < 3 | < 3 | 28.5 ± 0.71 | 43 ± 1.4 | 67 ± 7.1 | 65.5 ± 3.5 | 12.5 ± 2.1 | 47 ± 1.4 | 23 ± 4.2 | 5.5 ± 0.71 |  | 
3 | MAADNPYQRGPNPTSASVAASRGTFATAELSVPRGNGFGGGKIYYPTDTTQGTFGAIAIVPGYTATWAAEGAWMGHWLASFGFVVIGIDTNSRNDNDTARGTQLLAALDYLTQRSSVRGRVDAKRLAVMGHSMGGGGALVAARQRPSLKAAVGLAPFKPSGPPSADRVPTMVIAGQRDGTVTPSYVDGLYRAIPAGTEKAYLEFAGAGHAFPTRPNPLQMRLVIPWLKSFTDHDTRYHQFLCPLKDRTGVTAYRSTCPLVAPGARD [TEP041] | 54.4 | 427 | < 3 | < 3 | < 3 | < 3 | < 3 | < 3 | < 3 | < 3 | < 3 | < 3 | 3 | < 3 | < 3 | < 3 | < 3 | < 3 |  | 
4 | MAAGPAAVAADNPYQRGPDPTPASVAAPNGPFATAQVSVPPGYGFNGGMIYYPTDTSQGTFGAIAISPGYTALFSVELAWMGPRLASQGFVVIGIETNDRNDFDTARGTQLLAALDYLTGQSSVRSRVDPNRLAVAGHSMGGGGAFSAALRRPALKAAVGFTPFSPSQNLTNMQVPALLYSGQYDTVTTPSSVSNLYNGLPSTTEGAYIEAAGLDHSFPTRPNTLLMRTMIPWVKIFLDNDLRYTQFLCPLMDSSGVLQYRNTCPLVPPGLPSPSPTTAPPTTAPPTTAPPPTTAPPPTTAPPPTTAPPPTTNPPAGACSVSYTTNQWPGGFTRDVRITNTGGSVSSWTLAFTAGSNVSLSNGWNGDWSQSGSQITVRNAAWNGSLASGATVSIGFQGTFSGSTLPPLSNITLNGAACAS [DP068] | 63.4 | 60 |  |  |  |  |  |  |  |  |  | 3 | 21 | 36 |  | < 3 | 7 | 17 | 52 | 20
5 | MAENPYERGPAPTTSSIEASRGSFATSTVTVSRLAVSGFGGGTIYYPTSTTAGTFGAISIAPGFTALQSSIAWLGPRLASQGFVVFTIDTLTTSDQPDSRGRQLLAALDYLTQQSSVRSRIDSSRLGVVGHSMGGGGTLEAARSRPSLQAAIPLTGWNLTKTWSTVRVPTLVVGAQADTVAPVASHSIPFYNSLPSSLDKAYLELRGASHFAPNSSNTTIAKYTLSWLKRFIDNDTRYEQFLCPIPSTSLSISDYRGNCPHNG [TEP182] | 53.5 | 290 | < 3 | < 3 | < 3 | < 3 | < 3 | < 3 | < 3 | < 3 | < 3 | 6 | 11 | 17.5 ± 2.1 | < 3 | 4 | 12.5 ± 0.71 | 15.5 ± 0.71 |  | 
6 | MAGAAGWPSTASAADNPYQRGPAPTAASIAADRGPFATAQVTVPRGNGFGGGVIYYPTDTSQGTFGAIAIAPGFSTAWSYYAWQGPRLASFGFVVIGIETNTLNDYADARAAQLLAALDYLVNSSSVRDRVDRNRLAVGGHSMGGGGAILAANQRPSLLTAVGQAPYVPDGSLSGIKSPTIIFAGQTDGTVTPQYAQNAYNTIPGSVERAYVEIANEGHGFPAGGGGGNSGAFARTMMIWLKLFVDKDTRYAPFLCPALTNANGISKYMASCPLDPPGGGPTASPTSTPTSTPTSTPTGSPPTGSTSSLRGVASGRCLDVNGASQSNGATVLIWDCNGQSNQKWTSTSASELRVYGGKCLDVNGGGTADGTAVIIWDCNGQNNQKWRFNSDSSITAVGANKCLDVSANGTANGTRVQIWSCTGGGNQKWTRV [ESM024] | 62.8 | 86.8 |  |  |  |  |  |  |  |  | < 3 | < 3 | 3 | 4 |  |  |  |  |  | 
7 | MAQTSSCSLMGDVDGSGAIDIVDALLVAQAYVGLNPANYNDACADVDCSDSANIVDALLVAQLYVGLISSFPCEVTPEPTGVSTPTPGGAISIACGSSSAVGSFQADEYYSGGSTYNNSNTVDVSLITDNPPPAALFNNERYGEMSYTIPGFTAGGTYAVTLYFAETYLTSSGSRQFNVSINGTAVLSSFDIYAAAGGQNRAVARAFTTTADSGGQIVIQFTSVTENPKINGISIQAGTAPTPGPTATPGPTSENPYERGPDPSLESVAASRGTFATAELTLSPGNGFGGGFIYYPTDTSLGTWAAVAICPGYTAKFANEETWMGHWLASFGFVVIGIETNTTTDSVDARGTQLLAALDYLTQQSAVRDRVDPDRLMVMGHSAGGGGAFTAAVQRSSLKTVVGLAPASASNMGSLRMPVMIISGQYDDVITPSYINGIWTSLSPTIQRAWIELANNDHLSFTRSNSTEMRVLIPWMKIFLDNDTRYTQFLCPLADSSGISKYENSCPLVP [TEP011] | 64.6 | 30.6 |  |  |  |  |  |  |  |  | < 3 | < 3 | < 3 | < 3 |  |  |  |  |  | 
8 | MASIVVPGSAAAADNPYQRGPNPTQASVAANRGTFATAETSVGGGNGFGGAKIYYPTDTSQGTFGAIAVVPGYTATWAAEGAWMGHWLSSFGFVVIGIDTNSRNDNDTARGTQLLAALDYLTQRSSVRARVDPNRLAVMGHSMGGGGAISAALRRPTLKAAIGNAPFSPSQNLSTMRVPTALLAGQRDGTVTPSLVSGYYNQIPASTEKMYLELTGAGHGFPTSNNSVATRKWVPWMKIFLDQDTRYQQFLCPLLDNTGISAYRSTCPLIPGDPAPGTTFSLAGSASGKCVDVPGGTQTNGAGLIIWPCRGVTNQRWAQTAAGELRIYDNAKCMDANASGQGARVTINSCHGGASQKWTVNTNGTVTNSASGRCLEAVGTADDAPVVVNTCNGGSGQTWAKRA [TEP164] | 64 | 192 |  |  |  |  |  |  |  |  | < 3 | 7 | 25 | 31 | < 3 | < 3 | < 3 | < 3 |  | 
9 | MIATIPDGSAAAAADDNPYQRGPDPTVASVAAQYGPFATAQITVPPGNGFNGGFIYYPTDTSHTYGAVAIVPGYTALFANEEAWMGPRLASFGFVVIGVETNSRNDYDTARGTQLLAALDYLTNSSAVRDRVDRNRLAVIGHSMGGGGSLYAATQRPSLKAAIGLAPFKPSGNLASDTVPTMIIGGINDTTVTPSYLDGLYPTLPAATPGAYLQLANADHLYFTRPNDIELRSQIEWLKIFVDNDARYTQFLCPSIKDTTGIARSNVKCSTIPSGGSTPPSSPPPVPSGPQRILAAQSGRCVDVPNATHNNGTRVQLYDCNGQANQQWTSTSSKQLTVYGNVCLDAAGSGNGAAVQIYSCNGQSNQQWNVNANGTITGVQSGRCLDVWGTGNGQQIQLWDCNGQANQRFSLS [TEP181] | 50.2 | 249 | < 3 | < 3 | < 3 | < 3 | < 3 | < 3 | < 3 | < 3 | 4.5 ± 0.71 | 12.5 ± 0.71 | 11 ± 1.4 | < 3 | < 3 | < 3 | < 3 | < 3 |  | 
10 | MLGALAIVGGTRPATGADNPYQRGPDPTPASVSAGRGTFATAQVSVGAGNGFGGGVIYYPTDTSQGTFGAIAVVPGYTATWAAEGAWMGHWLASYGFVVIGIDTNTRNDWDTARGTQLLAALDYLTQRSSVRDRVDATRTAVMGHSMGGGGAAYASLQRPSLKTSVGLAPFSPSQNLTTTRVPTMLLSGQNDGTVTPSSVQNLYNGIPAGVEKAYLELTGAGHGFPTSNNPTMMRTVIPWFKIFVDSDTRYTQFLCPLADSNGIRTYQSTCPLVPSTPPTTTTTPTSTTTTSTTSTTPTTTTTTPQPGGACSATYRTVNSWSGGYQGEVTVTAGTSAVTGWTVRWSLGSGQTISQVWNGTLTVDGPTASVRNVSYNGSLGANASTTFGFIGGGTPPTSTLSCTSP [ESM006] | 63.1 | 577 | < 3 | < 3 | < 3 | < 3 | < 3 | < 3 | < 3 | < 3 | < 3 | 6.5 ± 0.71 | 13 ± 1.4 | 17.5 ± 6.4 | < 3 | < 3 | < 3 | < 3 |  | 
11 | MLTITVATGSASAADNPYQRGPDPTRTSVTAVNGPFANTSVSVPTGYGFNGGRIYYPTDTSQGTFGAIAISPGYTALFSAELAWMGPWLASHGFVVIGIETNSRNDFDTARGTQLLAALDYLTQQSPVRDRVDPNRLAVAGHSMGGGGALSAATRRSSLKAVVGIAPYSPSSNLANDRVPTMIFAGQADTVVTPSYATGLYNSLPTTTESAYLEVAGADHGFMVGRSNPVMVRTMLPFVKMFIDNDARYSQFLCPLLDSSGVVTYRSTCPLLPSTPPTSTPTPTDPPTPTPTPTVPPGSASEIVGTQSSRCIDVPNASRNNGTRVQLYDCNKQTNQA [ESM121] | 58.9 | 268 | < 3 | < 3 | < 3 | < 3 | < 3 | < 3 | < 3 | < 3 | 5.5 ± 0.71 | 15 ± 1.4 | 11 | 2.5 ± 3.5 | < 3 | < 3 | < 3 | < 3 |  | 
